± gives the uncertainty stated by the source.
Test: self-splicing fitness, log relative to wild type (ln ratio); higher = more splicing; Tetrahymena group I intron in knt gene, E. coli kanamycin selection, DiMSum; sequences stand for … in CUCUCU…GGAGGGAAAAGUUAUCAGGCAUGCACCUGGUAGCUAGUCUUUAAACCAAUAGAUUGCAUCGGUUUAAAAGGCAAGACCGUCAAAUUGCGGGAAAGGGGUCAACAGCCGUUCAGUACCAAGUCUCAGGGGAAACUUUGAGAUGGCCUUGCAAAGGGUAUGGUAAUAAGCUGACGGACAUGGUCCUAACCACGCAGCCAAGUCCUAAGUCAACAGAUCUUCUGUUGAUAUGGAUGCAGUUCACAGACUAAAUGUCGGUCGGGGAAGAUGUAUUCUUCUCAUAAGAUAUAGUCGGACCUCUCCUUAAUGGGAGCUAGCGGAUGAAGUGAUGCAACACUGGAGCCGCUGGGAACUAAUUUGUAUGCGAAAGUAUAUUGAUUAGUUUUGGAGUACUCGUGGUCG
Outline: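 A randomised library covering all eight P1ex-region intron nucleotides was built with the intron in the knt kanamycin-resistance gene on pET-22b(+) and held in E. coli BL21(DE3). Cells were grown overnight at 37°C or 30°C on LB agar, with or without 25 μg/mL kanamycin, plus 100 μg/mL carbenicillin, 50 μM IPTG and 0.2% rhamnose, and pooled colonies were amplicon-sequenced on an Illumina HiSeq 2500. DiMSum fitness is the error-weighted combination of wild-type-normalised replicate fold changes, kanamycin versus none.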

| Sequence | self-splicing fitness (ln) (30 °C) | self-splicing fitness (ln) (37 °C) |
| --- | --- | --- |
| CGGGAGCAAUAUUACGGGUU | -2.34 ± 0.32 | -2.53 ± 0.26 |
| UACAAGCAAUAUUACGUGUU | -2.85 ± 0.081 | -1.58 ± 0.11 |
| UUUCAGCAAUAUUACGUGGA | -3.32 ± 0.22 | -2.3 ± 0.35 |
| UGUCAGCAAUAUUACGUGUG | -0.636 ± 0.048 | 0.0859 ± 0.065 |
| ACGGAGCAAUAUUACGUUGC | – | -3.12 ± 0.4 |
| AAAUAGCAAUAUUACGCGAG | -1.93 ± 0.17 | -0.639 ± 0.14 |
| GCGGAGCAAUAUUACGAGGG | -4.49 ± 0.36 | -2.93 ± 0.34 |
| ACCUAGCAAUAUUACGGGGC | -3.06 ± 0.15 | -1.66 ± 0.15 |
| GUCAAGCAAUAUUACGCUCA | -1.42 ± 0.11 | -0.0833 ± 0.13 |
| GCCGAGCAAUAUUACGGCGU | -2.55 ± 0.13 | -0.897 ± 0.1 |
| UAGUAGCAAUAUUACGCGUU | -2.86 ± 0.17 | -2.44 ± 0.23 |
| GUACAGCAAUAUUACGCUCC | -1.81 ± 0.29 | -0.404 ± 0.23 |
| ACUAAGCAAUAUUACGUCUU | -1.5 ± 0.075 | -1.14 ± 0.078 |
| UUGUAGCAAUAUUACGGCGC | – | -2.34 ± 0.2 |
| AAUGAGCAAUAUUACGUGGC | -2.82 ± 0.15 | -2.7 ± 0.2 |
| GAUCAGCAAUAUUACGAUUG | -0.607 ± 0.079 | -0.237 ± 0.11 |
| ACGGAGCAAUAUUACGGGGC | -3.39 ± 0.35 | -3.86 ± 0.46 |
| CGAAAGCAAUAUUACGCUAG | -2.3 ± 0.12 | -1.57 ± 0.12 |
| AUGGAGCAAUAUUACGGUCG | -2.63 ± 0.18 | -0.839 ± 0.12 |
| UCAAAGCAAUAUUACGUGCA | -0.542 ± 0.048 | 0.0292 ± 0.065 |
| UUACAGCAAUAUUACGAAGC | – | -1.41 ± 0.4 |
| GCCUAGCAAUAUUACGAACC | -1.07 ± 0.27 | 0.0441 ± 0.29 |
| ACUUAGCAAUAUUACGGAUC | -2.09 ± 0.11 | -1.35 ± 0.16 |
| UUCAAGCAAUAUUACGCAGC | -1.85 ± 0.16 | -2.72 ± 0.31 |
| UCAUAGCAAUAUUACGGUAA | -2.44 ± 0.27 | -0.618 ± 0.15 |

| Sequence | self-splicing fitness (ln) (30 °C) | self-splicing fitness (ln) (37 °C) |
| --- | --- | --- |
| CGAAAGCAAUAUUACGGAGU | -3.55 ± 0.19 | -2.42 ± 0.17 |
| CGGUAGCAAUAUUACGGAAU | – | -1.93 ± 0.47 |
| CAGUAGCAAUAUUACGACUG | -4.55 ± 0.26 | -2.84 ± 0.23 |
| UUGUAGCAAUAUUACGCUAA | -0.865 ± 0.17 | -0.386 ± 0.19 |
| GAGAAGCAAUAUUACGCAUG | -1.99 ± 0.11 | -1.04 ± 0.14 |
| GCCAAGCAAUAUUACGUUAG | -1.93 ± 0.12 | -2.64 ± 0.2 |
| UAACAGCAAUAUUACGGAUC | -3.92 ± 0.22 | -2.17 ± 0.15 |
| GGCCAGCAAUAUUACGGGUG | -1.02 ± 0.049 | -0.536 ± 0.065 |
| UACAAGCAAUAUUACGAAUU | -2.48 ± 0.16 | -2.99 ± 0.26 |
| CAUAAGCAAUAUUACGACGU | -2.51 ± 0.14 | -1.27 ± 0.15 |
| CAAGAGCAAUAUUACGACAA | -0.348 ± 0.28 | -1.43 ± 0.39 |
| UUAAAGCAAUAUUACGAAGG | -0.779 ± 0.14 | -1.09 ± 0.18 |
| CCGAAGCAAUAUUACGCGGC | -3.55 ± 0.28 | -2.27 ± 0.3 |
| CUCGAGCAAUAUUACGAUUA | -3.13 ± 0.3 | -2.56 ± 0.26 |
| AAUCAGCAAUAUUACGUACA | -0.484 ± 0.076 | 0.13 ± 0.1 |
| GAAUAGCAAUAUUACGGCAG | -3.67 ± 0.39 | -1.93 ± 0.25 |
| CAAUAGCAAUAUUACGCGAA | -3.11 ± 0.21 | -1.67 ± 0.15 |
| GUACAGCAAUAUUACGAUGU | -1.33 ± 0.081 | 0.106 ± 0.088 |
| UCGCAGCAAUAUUACGAAUA | -2.57 ± 0.22 | -1.74 ± 0.16 |
| AUCAAGCAAUAUUACGCGUG | -2.23 ± 0.08 | -0.744 ± 0.084 |
| UCCUAGCAAUAUUACGCACC | -2.95 ± 0.32 | -1.62 ± 0.25 |
| ACGUAGCAAUAUUACGUCGU | -3.52 ± 0.15 | -2.59 ± 0.15 |
| GUACAGCAAUAUUACGAAGC | -1.83 ± 0.17 | -1.5 ± 0.28 |
| CGCCAGCAAUAUUACGCAAA | -2.31 ± 0.19 | -2.64 ± 0.26 |
